The record followed here is patent EP4568683A2 (dated 2025).

The target of experiment [1] is T1, recombinant human PSMA protein (human, UniProt Q04609 44-750).
T1 construct: On Blue native PAGE the protein appeared to be a mixture of dimer and monomer; also called recombinant human PSMA (Acro Biosciences / Acro Biosystems; printed 'Aero')
Briefly: ELISA, plates coated with 1 ug/mL recombinant human PSMA. A general note: In an ELISA, binding on a coated surface is turned into a signal by an enzyme label.

For experiment [2], the target named is T2, human PSMA expressed on prostate cancer cell lines (22Rv1, C4-2B, PC3-PSMA) (human, UniProt Q04609 1-750).
T2 construct: Endogenous PSMA on 22Rv1 and C4-2B cells; PC3 cells were engineered to express PSMA; also called prostate specific membrane antigen; FOLH1
As to the kind of experiment: flow cytometry on PSMA-expressing 22Rv1 cells, PE anti-human IgG-Fc secondary, MFI. A general note: A flow cytometer gives signals particle by particle.

T2 sequence (Q04609 whole entry): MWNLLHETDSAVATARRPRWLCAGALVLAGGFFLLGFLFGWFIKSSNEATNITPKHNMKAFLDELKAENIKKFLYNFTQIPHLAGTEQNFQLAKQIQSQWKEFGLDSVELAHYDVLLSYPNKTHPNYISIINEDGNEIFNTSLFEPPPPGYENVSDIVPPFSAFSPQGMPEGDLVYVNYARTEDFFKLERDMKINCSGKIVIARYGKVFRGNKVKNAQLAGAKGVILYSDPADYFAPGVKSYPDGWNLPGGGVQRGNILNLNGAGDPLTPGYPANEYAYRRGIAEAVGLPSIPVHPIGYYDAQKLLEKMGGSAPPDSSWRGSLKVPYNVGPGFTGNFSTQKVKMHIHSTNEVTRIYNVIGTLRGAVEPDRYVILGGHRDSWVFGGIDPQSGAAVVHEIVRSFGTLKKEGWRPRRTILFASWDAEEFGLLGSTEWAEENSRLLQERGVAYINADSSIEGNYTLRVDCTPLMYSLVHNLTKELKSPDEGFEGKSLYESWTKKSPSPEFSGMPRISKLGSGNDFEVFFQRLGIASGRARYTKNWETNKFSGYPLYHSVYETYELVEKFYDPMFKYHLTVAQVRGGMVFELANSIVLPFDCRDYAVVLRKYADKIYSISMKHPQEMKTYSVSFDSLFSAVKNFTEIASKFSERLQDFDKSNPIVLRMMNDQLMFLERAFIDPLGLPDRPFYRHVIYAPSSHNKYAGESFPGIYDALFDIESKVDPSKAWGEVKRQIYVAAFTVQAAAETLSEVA
T1 sequence (Q04609 44-750 limits assumed): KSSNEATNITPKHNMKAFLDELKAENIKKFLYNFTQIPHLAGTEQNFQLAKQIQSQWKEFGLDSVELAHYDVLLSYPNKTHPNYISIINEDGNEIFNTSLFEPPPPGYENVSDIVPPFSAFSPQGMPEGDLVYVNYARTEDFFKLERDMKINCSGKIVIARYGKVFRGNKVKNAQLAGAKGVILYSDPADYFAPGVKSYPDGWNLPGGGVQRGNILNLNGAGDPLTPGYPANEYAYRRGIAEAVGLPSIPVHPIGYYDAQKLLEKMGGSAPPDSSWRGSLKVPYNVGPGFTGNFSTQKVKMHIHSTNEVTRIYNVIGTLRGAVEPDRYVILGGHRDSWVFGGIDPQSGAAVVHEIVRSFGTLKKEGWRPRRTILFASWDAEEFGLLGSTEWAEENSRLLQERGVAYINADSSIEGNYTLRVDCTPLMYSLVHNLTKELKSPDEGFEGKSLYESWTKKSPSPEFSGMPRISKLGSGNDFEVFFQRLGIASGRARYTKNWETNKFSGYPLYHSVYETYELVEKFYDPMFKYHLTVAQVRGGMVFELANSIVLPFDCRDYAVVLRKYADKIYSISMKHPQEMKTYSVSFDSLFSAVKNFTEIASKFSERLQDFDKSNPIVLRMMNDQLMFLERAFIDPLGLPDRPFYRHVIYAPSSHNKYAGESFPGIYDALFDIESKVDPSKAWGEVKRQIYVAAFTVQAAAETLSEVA

B1: benchmark antibody J591 (antibody, V domains shown)
VH: EVQLQQSGPELKKPGTSVRISCKTSGYTFTEYTIHWVKQSHGKSLEWIGNINPNNGGTTYNQKFEDKATLTVDKSSSTAYMELRSLTSEDSAVYYCAAGWNFDYWGQGTTLTVSS
VL: DIVMTQSHKFMSTSVGDRVSIICKASQDVGTAVDWYQQKPGQSPKLLIYWASTRHTGVPDRFTGSGSGTDFTLTITNVQSEDLADYFCQQYNSYPLTFGAGTMLDLK
notes: It was detected with anti-human IgG Fc secondary antibody; also called Benchmark (J591)
On to B1, for which the binding result in experiment [1] and in experiment [2] was “binds” throughout.
